This series addresses HCV NS3 helicase (WT) (Hepatitis C virus (subgenomic replicon …, UniProt Q9WMX2 1027-1657)). Nature of the series: competition.

Sequence of HCV NS3 helicase (WT) (Hepatitis C virus (Q9WMX2 1027-1657): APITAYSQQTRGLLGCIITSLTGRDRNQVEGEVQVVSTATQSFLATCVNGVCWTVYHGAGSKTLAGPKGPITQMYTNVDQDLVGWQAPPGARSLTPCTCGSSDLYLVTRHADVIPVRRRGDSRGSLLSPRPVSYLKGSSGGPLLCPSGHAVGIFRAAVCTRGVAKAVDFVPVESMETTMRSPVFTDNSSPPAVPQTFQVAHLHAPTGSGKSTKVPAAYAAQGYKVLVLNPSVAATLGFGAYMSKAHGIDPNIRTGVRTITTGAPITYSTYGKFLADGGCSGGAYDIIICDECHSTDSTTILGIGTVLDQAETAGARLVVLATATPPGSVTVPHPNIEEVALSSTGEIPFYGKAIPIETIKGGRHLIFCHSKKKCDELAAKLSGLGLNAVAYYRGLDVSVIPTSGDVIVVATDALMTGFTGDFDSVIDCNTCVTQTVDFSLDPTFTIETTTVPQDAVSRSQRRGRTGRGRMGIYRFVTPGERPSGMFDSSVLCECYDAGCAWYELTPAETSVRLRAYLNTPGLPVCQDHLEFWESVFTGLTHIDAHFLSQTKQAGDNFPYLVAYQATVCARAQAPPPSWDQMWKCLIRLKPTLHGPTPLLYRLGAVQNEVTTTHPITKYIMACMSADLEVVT

B1: ds9 (competitor duplex) (dsRNA)
RNA 1: GCCGCCCGG
RNA 2: CCGGGCGGC
As a reminder, the Ki is a measure of affinity in units of concentration, obtained from inhibition or displacement. For B1, the Ki came to 90 ± 20 nM.

These data come from PMC2831328.
